In paper PMC11430019 (bioRxiv, 2024):

How the values were obtained:
[1] = molecular target: HSV-2 gH ectodomain (gH_(ecto)) (HSV-2, UniProt P89445); assay: cryo-EM structure
[2] = molecular target: HSV-2 gH ectodomain / gL heterodimeric complex (gH_(ecto)/gL) (HSV-2, UniProt P89445;P28278); assay: cryo-EM structure
Chain of HSV-2 gH ectodomain / gL heterodimeric complex (gH_(ecto)/gL) (P89445 19-803, chain 1 of 2): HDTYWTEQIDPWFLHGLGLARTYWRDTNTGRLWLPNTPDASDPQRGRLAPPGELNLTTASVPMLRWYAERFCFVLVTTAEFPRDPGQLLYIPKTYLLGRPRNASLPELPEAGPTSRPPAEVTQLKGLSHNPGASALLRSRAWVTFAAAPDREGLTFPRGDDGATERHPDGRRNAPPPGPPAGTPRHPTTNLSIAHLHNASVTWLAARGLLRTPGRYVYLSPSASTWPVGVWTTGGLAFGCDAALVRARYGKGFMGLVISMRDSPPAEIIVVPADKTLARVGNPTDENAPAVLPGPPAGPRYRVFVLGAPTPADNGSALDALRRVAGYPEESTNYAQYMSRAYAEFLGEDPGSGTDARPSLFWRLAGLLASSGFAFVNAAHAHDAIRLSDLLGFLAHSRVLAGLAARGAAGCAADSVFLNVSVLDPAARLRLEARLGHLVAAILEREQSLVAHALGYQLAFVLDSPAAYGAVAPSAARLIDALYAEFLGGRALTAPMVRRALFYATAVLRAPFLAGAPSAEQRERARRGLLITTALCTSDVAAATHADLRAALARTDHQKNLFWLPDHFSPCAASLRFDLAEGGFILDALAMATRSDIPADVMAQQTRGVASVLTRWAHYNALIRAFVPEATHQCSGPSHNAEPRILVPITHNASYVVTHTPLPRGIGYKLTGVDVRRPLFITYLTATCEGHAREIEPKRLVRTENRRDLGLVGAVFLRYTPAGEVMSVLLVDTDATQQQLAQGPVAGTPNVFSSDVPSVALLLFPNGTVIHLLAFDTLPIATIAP
Chain of HSV-2 gH ectodomain / gL heterodimeric complex (gH_(ecto)/gL) (P28278 17-224, chain 2 of 2): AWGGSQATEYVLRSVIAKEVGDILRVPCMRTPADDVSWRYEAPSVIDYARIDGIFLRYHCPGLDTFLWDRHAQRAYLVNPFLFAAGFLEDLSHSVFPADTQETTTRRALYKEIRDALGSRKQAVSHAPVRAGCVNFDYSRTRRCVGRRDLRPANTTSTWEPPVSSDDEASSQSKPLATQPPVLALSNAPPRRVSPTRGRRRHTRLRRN

Chain of HSV-2 gH ectodomain (gH_(ecto)) (P89445 19-803): as the sequence (P89445 19-803, chain 1 of 2) above

B1: CHL27 Fab (Fab, V domains shown)
VH: QIQLVQSGPELKKPGETVKISCRASGYTFTDYSMHWVKQAPGKGLQWMGWIDTETGEPTYADDFKGRFAFSLETSAITAYLQINNLKNEDTATYFCARGLSPYWGHGTLVTVSA
VL: NIVMTQSPKSMSMSVGERVTLSCKASENVGSYVSWYQQKPEQSPKLLIYGASIRHTGVPDRFAGSGSATDFTLTISSVQAEDLAAYHCGQTYSSPYTFGGGTKLEIK
Q: Does B1 bind [1]?
A: binds

Q: Does B1 bind [2]?
A: binds
